Patent US10239925B2, “Peptides and combination of peptides for use in immunotherapy against ovarian cancer and other cancers” (IMMATICS BIOTECHNOLOGIES GMBH, priority 2015, dated 2019)

These substances were tested against HLA-A*02:01 (Homo sapiens, UniProt P04439, D140Y/D185E/D98H/E176V/E277Q/G131W/G231S/I119V/I121R/I166T/I218V/L300P/L318F/N151K/N90K/P208A/P217A/Q86G/Q94H/R138H/R169H/T345S) (assay: MHC binding assay (UV-ligand exchange, anti-β2m ELISA, peptide exchange yield)). Conditions: binding to HLA-A*02:01.
From the text: Candidate peptides for T cell based therapies according to the present invention were further tested for their MHC binding capacity (affinity). The individual peptide-MHC complexes were produced by UV-ligand exchange, where a UV-sensitive peptide is cleaved upon UV-irradiation, and exchanged with the peptide of interest as analyzed. Only peptide candidates that can effectively bind and stabilize the peptide-receptive MHC molecules prevent dissociation of the MHC complexes. To determine the yield of the exchange reaction, an ELISA was performed based on the detection of the light chain (β2m) of stabilized MHC complexes. The assay was performed as generally described in Rodenko et al. (Rodenko et al., 2006).
96 well MAXISorp plates (NUNC) were coated over night with 2 ug/ml streptavidin in PBS at room temperature, washed 4× and blocked for 1h at 37° C. in 2% BSA containing blocking buffer. […] Peptide-MHC monomers of the UV-exchange reaction were diluted 100 fold in blocking buffer. Samples were incubated for 1 h at 37° C., washed four times, incubated with 2 ug/ml HRP conjugated anti-β2m for 1h at 37° C., washed again and detected with TMB solution that is stopped with […]. Absorption was measured at 450 nm. Candidate peptides that show a high exchange yield (preferably higher than 50%, most preferred higher than 75%) are generally preferred for a generation and production of antibodies or fragments thereof, and/or T cell receptors or fragments thereof, as they show sufficient avidity to the MHC molecules and prevent dissociation of the MHC complexes.

With “84 (VTFGEKLLGV; listed as Homo sapiens) [compound 84]” as the substance, how does the “Peptide exchange (MHC class I binding score, peptide exchange yield)” value (from here on “Peptide exchange”) read?
Its value is ““++” (>20% = ++)”.

“85 (KMSELRVTL; listed as Homo sapiens) [compound 85]” was tested. Which “Peptide exchange” value did it give?
Its value is ““+++” (>50 = +++)”.

“86 (NLIGKIENV; listed as Homo sapiens) [compound 86]” was tested. Which “Peptide exchange” value did it give?
Its value is ““+++” (>50 = +++)”.

Which “Peptide exchange” value does the source give for “87 (ALPEAPAPLLPHIT; listed as Homo sapiens) [compound 87]” here?
Its value is ““++” (>20% = ++)”.

“88 (FLLVGDLMAV; listed as Homo sapiens) [compound 88]” was tested. Which “Peptide exchange” value did it give?
Its value is ““+++” (>50 = +++)”.

“89 (YILPTETIYV; listed as Homo sapiens) [compound 89]” was tested. Which “Peptide exchange” value did it give?
Its value is ““++++” (>75% = ++++)”.

How did the “Peptide exchange” value turn out when “90 (TLLQIIETV; listed as Homo sapiens) [compound 90]” was run?
The value was ““+++” (>50 = +++)”.

How did the “Peptide exchange” value turn out when “91 (IMQDFPAEIFL; listed as Homo sapiens) [compound 91]” was run?
Its value is ““++++” (>75% = ++++)”.

“92 (YLIPFTGIVGL; listed as Homo sapiens) [compound 92]” was tested. Which “Peptide exchange” value did it give?
The value was ““++” (>20% = ++)”.

How did the “Peptide exchange” value turn out when “93 (LLQAIKLYL; listed as Homo sapiens) [compound 93]” was run?
The value was ““++” (>20% = ++)”.

“94 (YLIDIKTIAI; listed as Homo sapiens) [compound 94]” was tested. Which “Peptide exchange” value did it give?
The value was ““++” (>20% = ++)”.

For “95 (SVIPQIQKV; listed as Homo sapiens) [compound 95]”, which “Peptide exchange” value is on record?
Its value is ““+++” (>50 = +++)”.

Which “Peptide exchange” value does the source give for “96 (YIFTDNPAAV; listed as Homo sapiens) [compound 96]” here?
Its value is ““+++” (>50 = +++)”.

Which “Peptide exchange” value does the source give for “97 (SLINGSFLV; listed as Homo sapiens) [compound 97]” here?
Its value is ““+++” (>50 = +++)”.

For “98 (LIIDQADIYL; listed as Homo sapiens) [compound 98]”, which “Peptide exchange” value is on record?
The value was ““+++” (>50 = +++)”.

How did the “Peptide exchange” value turn out when “99 (ALVSKGLATV; listed as Homo sapiens) [compound 99]” was run?
The value was ““++” (>20% = ++)”.

How did the “Peptide exchange” value turn out when “100 (YLLSTNAQL; listed as Homo sapiens) [compound 100]” was run?
The value was ““++++” (>75% = ++++)”.

With “101 (ILVGGGALATV; listed as Homo sapiens) [compound 101]” as the substance, how does the “Peptide exchange” value read?
Its value is ““+++” (>50 = +++)”.

“102 (YLFESEGLVL; listed as Homo sapiens) [compound 102]” was tested. Which “Peptide exchange” value did it give?
The value was ““+++” (>50 = +++)”.

Which “Peptide exchange” value does the source give for “103 (TLAEEVVAL; listed as Homo sapiens) [compound 103]” here?
The value was ““+++” (>50 = +++)”.

Which “Peptide exchange” value does the source give for “104 (STMEQNFLL; listed as Homo sapiens) [compound 104]” here?
Its value is ““++++” (>75% = ++++)”.

Which “Peptide exchange” value does the source give for “106 (LLYDAVHIVSV; listed as Homo sapiens) [compound 106]” here?
Its value is ““+++” (>50 = +++)”.

How did the “Peptide exchange” value turn out when “107 (FLQPVDDTQHL; listed as Homo sapiens) [compound 107]” was run?
Its value is ““+++” (>50 = +++)”.

For “109 (IILSILEQA; listed as Homo sapiens) [compound 109]”, which “Peptide exchange” value is on record?
The value was ““++++” (>75% = ++++)”.

With “110 (FLSQVDFEL; listed as Homo sapiens) [compound 110]” as the substance, how does the “Peptide exchange” value read?
Its value is ““+++” (>50 = +++)”.

How did the “Peptide exchange” value turn out when “111 (YVWGFYPAEV; listed as Homo sapiens) [compound 111]” was run?
The value was ““+++” (>50 = +++)”.

How did the “Peptide exchange” value turn out when “114 (SLVGEPILQNV; listed as Homo sapiens) [compound 114]” was run?
The value was ““++” (>20% = ++)”.

With “115 (AIAGAGILYGV; listed as Homo sapiens) [compound 115]” as the substance, how does the “Peptide exchange” value read?
Its value is ““++” (>20% = ++)”.

For “116 (YHIDEEVGF; listed as Homo sapiens) [compound 116]”, which “Peptide exchange” value is on record?
The value was ““+” (>10% = +)”.

With “117 (ILPDGEDFLAV; listed as Homo sapiens) [compound 117]” as the substance, how does the “Peptide exchange” value read?
Its value is ““+++” (>50 = +++)”.

For “119 (FLYIGDIVSL; listed as Homo sapiens) [compound 119]”, which “Peptide exchange” value is on record?
Its value is ““++++” (>75% = ++++)”.

“120 (ALLGIPLTLV; listed as Homo sapiens) [compound 120]” was tested. Which “Peptide exchange” value did it give?
The value was ““+++” (>50 = +++)”.

For “121 (GVVDPRAISVL; listed as Homo sapiens) [compound 121]”, which “Peptide exchange” value is on record?
Its value is ““++” (>20% = ++)”.

For “122 (FLLAEDDIYL; listed as Homo sapiens) [compound 122]”, which “Peptide exchange” value is on record?
The value was ““+++” (>50 = +++)”.

How did the “Peptide exchange” value turn out when “123 (NLWDLTDASVV; listed as Homo sapiens) [compound 123]” was run?
Its value is ““+++” (>50 = +++)”.

How did the “Peptide exchange” value turn out when “124 (ALYETELADA; listed as Homo sapiens) [compound 124]” was run?
Its value is ““++” (>20% = ++)”.

For “125 (VQIHQVAQV; listed as Homo sapiens) [compound 125]”, which “Peptide exchange” value is on record?
The value was ““+++” (>50 = +++)”.

“126 (VLAYFLPEA; listed as Homo sapiens) [compound 126]” was tested. Which “Peptide exchange” value did it give?
The value was ““++++” (>75% = ++++)”.

Which “Peptide exchange” value does the source give for “127 (KIGDEPPKV; listed as Homo sapiens) [compound 127]” here?
The value was ““++” (>20% = ++)”.

With “128 (YLFDDPLSAV; listed as Homo sapiens) [compound 128]” as the substance, how does the “Peptide exchange” value read?
Its value is ““++” (>20% = ++)”.

For “129 (GLLDGGVDILL; listed as Homo sapiens) [compound 129]”, which “Peptide exchange” value is on record?
Its value is ““+++” (>50 = +++)”.

For “130 (FLWNGEDSALL; listed as Homo sapiens) [compound 130]”, which “Peptide exchange” value is on record?
Its value is ““+++” (>50 = +++)”.

For “131 (FVPPVTVFPSL; listed as Homo sapiens) [compound 131]”, which “Peptide exchange” value is on record?
Its value is ““++” (>20% = ++)”.

Which “Peptide exchange” value does the source give for “132 (LLVEQPPLAGV; listed as Homo sapiens) [compound 132]” here?
Its value is ““+++” (>50 = +++)”.

“133 (KVLSNIHTV; listed as Homo sapiens) [compound 133]” was tested. Which “Peptide exchange” value did it give?
The value was ““++” (>20% = ++)”.

For “134 (YLQELIFSV; listed as Homo sapiens) [compound 134]”, which “Peptide exchange” value is on record?
Its value is ““+++” (>50 = +++)”.

How did the “Peptide exchange” value turn out when “135 (ALSEVDFQL; listed as Homo sapiens) [compound 135]” was run?
Its value is ““+++” (>50 = +++)”.

For “136 (YLADPSNLFVV; listed as Homo sapiens) [compound 136]”, which “Peptide exchange” value is on record?
The value was ““+++” (>50 = +++)”.

With “137 (TLVLTLPTV; listed as Homo sapiens) [compound 137]” as the substance, how does the “Peptide exchange” value read?
Its value is ““++++” (>75% = ++++)”.

“138 (YQYPRAILSV; listed as Homo sapiens) [compound 138]” was tested. Which “Peptide exchange” value did it give?
Its value is ““+++” (>50 = +++)”.

How did the “Peptide exchange” value turn out when “139 (SVMEVNSGIYRV; listed as Homo sapiens) [compound 139]” was run?
The value was ““+++” (>50 = +++)”.

Which “Peptide exchange” value does the source give for “140 (YMDAPKAAL; listed as Homo sapiens) [compound 140]” here?
Its value is ““++” (>20% = ++)”.

For “142 (FLFATPVFI; listed as Homo sapiens) [compound 142]”, which “Peptide exchange” value is on record?
The value was ““+++” (>50 = +++)”.

For “144 (YIMEPSIFNTL; listed as Homo sapiens) [compound 144]”, which “Peptide exchange” value is on record?
The value was ““+++” (>50 = +++)”.

For “145 (FLATSGTLAGI; listed as Homo sapiens) [compound 145]”, which “Peptide exchange” value is on record?
The value was ““++” (>20% = ++)”.

Which “Peptide exchange” value does the source give for “146 (SLATAGDGLIEL; listed as Homo sapiens) [compound 146]” here?
The value was ““++” (>20% = ++)”.

“147 (SLLEAVSFL; listed as Homo sapiens) [compound 147]” was tested. Which “Peptide exchange” value did it give?
The value was ““+++” (>50 = +++)”.

For “148 (ALNPEIVSV; listed as Homo sapiens) [compound 148]”, which “Peptide exchange” value is on record?
Its value is ““++” (>20% = ++)”.

With “149 (NLLELFVQL; listed as Homo sapiens) [compound 149]” as the substance, how does the “Peptide exchange” value read?
Its value is ““+++” (>50 = +++)”.

How did the “Peptide exchange” value turn out when “151 (KILQQLVTL; listed as Homo sapiens) [compound 151]” was run?
Its value is ““+++” (>50 = +++)”.

How did the “Peptide exchange” value turn out when “153 (FLIANVLYL; listed as Homo sapiens) [compound 153]” was run?
The value was ““+” (>10% = +)”.

With “154 (ALDDGTPAL; listed as Homo sapiens) [compound 154]” as the substance, how does the “Peptide exchange” value read?
Its value is ““++” (>20% = ++)”.
